Measured values: PMC8864007 (2022)

B1: VHH_1028 (VHH)
VHH: EVQLVESGGGLVQAGGSLRLSCAASGITFSINTMGWYRQAPGKQRELVALISSIGDTYYADSVRGRFTISRDNAKNTVYLQMNSLKPEDTAVYYCKRFRTAAQGTDYWGQGTQVTVSS
B2: iso-SGMIB-VHH_1028 (VHH)
VHH: B1 VHH
modifications: one iso-SGMIB (non-radioactive) conjugated, mono-substituted; site not stated

Legend:
HER2-Fc protein [1] = biological target: T1, HER2-Fc protein (human, UniProt P04626 23-652); assay: SPR
Human EGFR-Fc = assay: ELISA
Human IgG Fc = assay: ELISA
Rat HER2-Fc = assay: ELISA
Cynomolgus HER2-Fc = assay: ELISA
Human HER4-Fc = assay: ELISA
Canine HER2-Fc = assay: ELISA
Rhesus HER2-Fc = assay: ELISA
Human HER2-His6 = assay: ELISA
Human HER3-Fc = assay: ELISA
murine HER2 = biological target: T2, murine HER2 (murine, UniProt P70424 23-1256); assay: ELISA
T2 chain: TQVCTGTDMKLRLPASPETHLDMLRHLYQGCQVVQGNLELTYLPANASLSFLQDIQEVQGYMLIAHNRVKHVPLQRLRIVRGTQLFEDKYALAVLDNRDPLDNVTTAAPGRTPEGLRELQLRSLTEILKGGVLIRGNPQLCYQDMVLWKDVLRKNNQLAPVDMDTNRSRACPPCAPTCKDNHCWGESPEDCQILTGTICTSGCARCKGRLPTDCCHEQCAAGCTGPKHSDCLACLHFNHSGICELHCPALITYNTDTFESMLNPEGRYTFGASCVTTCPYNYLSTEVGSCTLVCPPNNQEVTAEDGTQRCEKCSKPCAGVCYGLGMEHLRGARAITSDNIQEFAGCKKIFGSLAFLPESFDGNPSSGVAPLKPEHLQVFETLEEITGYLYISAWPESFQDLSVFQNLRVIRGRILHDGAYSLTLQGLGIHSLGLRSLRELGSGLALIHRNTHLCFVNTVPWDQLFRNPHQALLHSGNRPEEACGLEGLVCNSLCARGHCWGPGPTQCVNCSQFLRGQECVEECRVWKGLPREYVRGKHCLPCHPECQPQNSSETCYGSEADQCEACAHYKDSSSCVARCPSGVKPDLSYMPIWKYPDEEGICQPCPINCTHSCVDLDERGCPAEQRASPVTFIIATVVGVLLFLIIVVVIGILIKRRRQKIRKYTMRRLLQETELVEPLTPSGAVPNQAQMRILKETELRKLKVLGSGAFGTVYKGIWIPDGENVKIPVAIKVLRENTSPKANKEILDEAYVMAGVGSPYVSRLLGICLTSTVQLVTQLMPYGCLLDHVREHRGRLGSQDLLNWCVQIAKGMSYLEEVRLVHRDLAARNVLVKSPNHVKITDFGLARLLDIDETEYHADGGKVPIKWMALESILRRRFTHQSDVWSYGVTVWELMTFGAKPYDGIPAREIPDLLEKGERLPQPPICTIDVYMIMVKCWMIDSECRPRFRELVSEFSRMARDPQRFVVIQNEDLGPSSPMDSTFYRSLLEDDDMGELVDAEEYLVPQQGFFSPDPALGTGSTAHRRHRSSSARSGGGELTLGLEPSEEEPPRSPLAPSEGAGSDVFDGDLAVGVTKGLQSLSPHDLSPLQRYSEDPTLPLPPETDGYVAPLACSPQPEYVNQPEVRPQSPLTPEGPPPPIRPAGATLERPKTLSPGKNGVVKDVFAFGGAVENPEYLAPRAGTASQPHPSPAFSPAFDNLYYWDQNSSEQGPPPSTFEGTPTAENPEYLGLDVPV

HER2-Fc protein [2] = biological target: T1, HER2-Fc protein; assay: ELISA

koff (HER2-Fc protein [1]) [s⁻¹]	EC50 (Human EGFR-Fc) [nM]	EC50 (Human IgG Fc) [nM]	EC50 (Rat HER2-Fc) [nM]	EC50 (Cynomolgus HER2-Fc) [nM]	EC50 (Human HER4-Fc) [nM]	EC50 (Canine HER2-Fc) [nM]	EC50 (Rhesus HER2-Fc) [nM]	EC50 (Human HER2-His6) [nM]	EC50 (Human HER3-Fc) [nM]	EC50 (murine HER2) [nM]	EC50 (HER2-Fc protein [2]) [nM]	Binder
0.000718	> 10000	> 10000	> 10000	1.19	> 10000	1.09	1.18	0.69	> 10000	> 10000	0.77	B1
0.00071	–	–	–	–	–	–	–	–	–	–	–	B2
